B1: AUP1 (parent)
chain: FCASTRLPPTPLLLFPEEEATNGR

Variants of: B1
Assay: protein stability index of a GFP-peptide fusion (GPS, HEK-293T) (PSI 1-6); higher = more stable
Settings: c terminus: a fixed tail appended
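Also: lentivirally expressed fusions sorted by FACS into six bins by GFP to DsRed ratio, PSI derived from sequencing read proportions per bin multiplied by bin number.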

First: FCGSTRLPPTPLLLFPEEEATNGR [A3G]
Second: FCDSTRLPPTPLLLFPEEEATNGR [A3D]
The protein stability index of the first is lower: 2.36 for the first, 3.33 for the second.

Going from FCHSTRLPPTPLLLFPEEEATNGR [A3H] to FCLSTRLPPTPLLLFPEEEATNGR [A3L], the protein stability index rises from 2.49 to 3.27.

Compared with FCKSTRLPPTPLLLFPEEEATNGR [A3K], FCSSTRLPPTPLLLFPEEEATNGR [A3S] is lower in protein stability index: 2.5 for the first, 2.44 for the second.

Going from FCISTRLPPTPLLLFPEEEATNGR [A3I] to FCCSTRLPPTPLLLFPEEEATNGR [A3C], the protein stability index rises from 2.46 to 2.78.

First: FCRSTRLPPTPLLLFPEEEATNGR [A3R]
Second: FCVSTRLPPTPLLLFPEEEATNGR [A3V]
The protein stability index of the first is lower: 2.23 for the first, 2.76 for the second.

First: FCYSTRLPPTPLLLFPEEEATNGR [A3Y]
Second: FCQSTRLPPTPLLLFPEEEATNGR [A3Q]
The protein stability index of the first is lower: 1.7 for the first, 2.88 for the second.

First: FCMSTRLPPTPLLLFPEEEATNGR [A3M]
Second: FCWSTRLPPTPLLLFPEEEATNGR [A3W]
The protein stability index of the first is higher: 2.88 for the first, 1.89 for the second.

Going from FCPSTRLPPTPLLLFPEEEATNGR [A3P] to FCTSTRLPPTPLLLFPEEEATNGR [A3T], the protein stability index rises from 2.25 to 2.84.

Going from FCNSTRLPPTPLLLFPEEEATNGR [A3N] to FCESTRLPPTPLLLFPEEEATNGR [A3E], the protein stability index rises from 2.62 to 3.67.

Compared with FCFSTRLPPTPLLLFPEEEATNGR [A3F], FCASTRLPLTPLLLFPEEEATNGR [P9L] is lower in protein stability index: 2.45 for the first, 2.11 for the second.

First: FCASTRLPHTPLLLFPEEEATNGR [P9H]
Second: FCASTRLPRTPLLLFPEEEATNGR [P9R]
The protein stability index of the first is higher: 2.56 for the first, 2.3 for the second.

Compared with FCASTRLPTTPLLLFPEEEATNGR [P9T], FCASTRLPWTPLLLFPEEEATNGR [P9W] is higher in protein stability index: 2.46 for the first, 2.97 for the second.

First: FCASTRLPETPLLLFPEEEATNGR [P9E]
Second: FCASTRLPKTPLLLFPEEEATNGR [P9K]
The protein stability index of the first is higher: 2.89 for the first, 2.67 for the second.

First: FCASTRLPITPLLLFPEEEATNGR [P9I]
Second: FCASTRLPATPLLLFPEEEATNGR [P9A]
The protein stability index of the first is lower: 2.43 for the first, 2.59 for the second.

Compared with FCASTRLPQTPLLLFPEEEATNGR [P9Q], FCASTRLPYTPLLLFPEEEATNGR [P9Y] is lower in protein stability index: 2.62 for the first, 2.03 for the second.

Going from FCASTRLPFTPLLLFPEEEATNGR [P9F] to FCASTRLPGTPLLLFPEEEATNGR [P9G], the protein stability index rises from 1.58 to 2.78.

First: FCASTRLPMTPLLLFPEEEATNGR [P9M]
Second: FCASTRLPCTPLLLFPEEEATNGR [P9C]
The protein stability index of the first is lower: 1.84 for the first, 2 for the second.

Going from FCASTRLPSTPLLLFPEEEATNGR [P9S] to FCASTRLPVTPLLLFPEEEATNGR [P9V], the protein stability index falls from 2.82 to 2.62.

Compared with FCASTRLPNTPLLLFPEEEATNGR [P9N], FCASTRLPDTPLLLFPEEEATNGR [P9D] is lower in protein stability index: 2.84 for the first, 2.74 for the second.

Going from FCASTRLTPTPLLLFPEEEATNGR [P8T] to FCASTRLSPTPLLLFPEEEATNGR [P8S], the protein stability index falls from 2.94 to 2.84.

Compared with FCASTRLWPTPLLLFPEEEATNGR [P8W], FCASTRLGPTPLLLFPEEEATNGR [P8G] is higher in protein stability index: 2.27 for the first, 2.66 for the second.

Going from FCASTRLYPTPLLLFPEEEATNGR [P8Y] to FCASTRLLPTPLLLFPEEEATNGR [P8L], the protein stability index rises from 1.9 to 1.96.

Going from FCASTRLEPTPLLLFPEEEATNGR [P8E] to FCASTRLCPTPLLLFPEEEATNGR [P8C], the protein stability index falls from 2.91 to 2.08.

First: FCASTRLMPTPLLLFPEEEATNGR [P8M]
Second: FCASTRLDPTPLLLFPEEEATNGR [P8D]
The protein stability index of the first is lower: 2.57 for the first, 2.92 for the second.

Compared with FCASTRLQPTPLLLFPEEEATNGR [P8Q], FCASTRLKPTPLLLFPEEEATNGR [P8K] is lower in protein stability index: 3.19 for the first, 2.09 for the second.

Going from FCASTRLAPTPLLLFPEEEATNGR [P8A] to FCASTRLHPTPLLLFPEEEATNGR [P8H], the protein stability index falls from 2.48 to 2.33.

First: FCASTRLRPTPLLLFPEEEATNGR [P8R]
Second: FCASTRLFPTPLLLFPEEEATNGR [P8F]
The protein stability index of the first is higher: 2.67 for the first, 2.43 for the second.

First: FCASTRLNPTPLLLFPEEEATNGR [P8N]
Second: FCASTRLVPTPLLLFPEEEATNGR [P8V]
The protein stability index of the first is higher: 2.66 for the first, 2.41 for the second.

First: FCASTRLIPTPLLLFPEEEATNGR [P8I]
Second: QCASTRLPPTPLLLFPEEEATNGR [F1Q]
The protein stability index of the first is lower: 2.3 for the first, 4.54 for the second.

Going from NCASTRLPPTPLLLFPEEEATNGR [F1N] to TCASTRLPPTPLLLFPEEEATNGR [F1T], the protein stability index rises from 4.16 to 4.6.

Going from WCASTRLPPTPLLLFPEEEATNGR [F1W] to RCASTRLPPTPLLLFPEEEATNGR [F1R], the protein stability index rises from 3.74 to 4.24.

First: HCASTRLPPTPLLLFPEEEATNGR [F1H]
Second: KCASTRLPPTPLLLFPEEEATNGR [F1K]
The protein stability index of the first is higher: 4.28 for the first, 4.17 for the second.

Going from DCASTRLPPTPLLLFPEEEATNGR [F1D] to CCASTRLPPTPLLLFPEEEATNGR [F1C], the protein stability index falls from 4.35 to 2.6.

Going from PCASTRLPPTPLLLFPEEEATNGR [F1P] to GCASTRLPPTPLLLFPEEEATNGR [F1G], the protein stability index falls from 4.53 to 4.27.

Going from MCASTRLPPTPLLLFPEEEATNGR [F1M] to YCASTRLPPTPLLLFPEEEATNGR [F1Y], the protein stability index falls from 4.27 to 3.

Compared with ACASTRLPPTPLLLFPEEEATNGR [F1A], ICASTRLPPTPLLLFPEEEATNGR [F1I] is higher in protein stability index: 4.17 for the first, 4.27 for the second.

First: ECASTRLPPTPLLLFPEEEATNGR [F1E]
Second: SCASTRLPPTPLLLFPEEEATNGR [F1S]
The protein stability index of the first is higher: 4.65 for the first, 4.3 for the second.

Compared with LCASTRLPPTPLLLFPEEEATNGR [F1L], VCASTRLPPTPLLLFPEEEATNGR [F1V] is higher in protein stability index: 3.9 for the first, 4.27 for the second.

First: FCASTRQPPTPLLLFPEEEATNGR [L7Q]
Second: FCASTRVPPTPLLLFPEEEATNGR [L7V]
The protein stability index of the first is lower: 3.16 for the first, 3.31 for the second.

Going from FCASTRRPPTPLLLFPEEEATNGR [L7R] to FCASTRKPPTPLLLFPEEEATNGR [L7K], the protein stability index rises from 2.63 to 2.89.

Compared with FCASTRMPPTPLLLFPEEEATNGR [L7M], FCASTRWPPTPLLLFPEEEATNGR [L7W] is lower in protein stability index: 3 for the first, 1.51 for the second.

Compared with FCASTREPPTPLLLFPEEEATNGR [L7E], FLASTRLPPTPLLLFPEEEATNGR [C2L] is higher in protein stability index: 3.24 for the first, 3.39 for the second.

First: FVASTRLPPTPLLLFPEEEATNGR [C2V]
Second: FTASTRLPPTPLLLFPEEEATNGR [C2T]
The protein stability index of the first is lower: 1.55 for the first, 3.42 for the second.

Going from FRASTRLPPTPLLLFPEEEATNGR [C2R] to FDASTRLPPTPLLLFPEEEATNGR [C2D], the protein stability index rises from 3.81 to 4.81.

Compared with FMASTRLPPTPLLLFPEEEATNGR [C2M], FNASTRLPPTPLLLFPEEEATNGR [C2N] is higher in protein stability index: 3.73 for the first, 3.82 for the second.

Compared with FEASTRLPPTPLLLFPEEEATNGR [C2E], FIASTRLPPTPLLLFPEEEATNGR [C2I] is lower in protein stability index: 4.91 for the first, 2.62 for the second.

Compared with FWASTRLPPTPLLLFPEEEATNGR [C2W], FSASTRLPPTPLLLFPEEEATNGR [C2S] is higher in protein stability index: 2.76 for the first, 3.8 for the second.

From the supplement of paper PMC10567573
